Source: publication PMC6318002 (Nature, 2018)

Biological target: the molecule itself
Assay: cross-linking

B1: recombinant PKM2-C423/424A (enzyme)
chain: not shown
stoichiometry N: 4
